One molecule from patent publication US6248875, “Neuronal MORT1 isoforms” (American Home Products Corporation, dated 2001) can be followed below.

In the test the target is T1, SNF4-pACTII (unrelated fusion with Gal4 activation domain) (yeast, UniProt P12904).
T1 sequence: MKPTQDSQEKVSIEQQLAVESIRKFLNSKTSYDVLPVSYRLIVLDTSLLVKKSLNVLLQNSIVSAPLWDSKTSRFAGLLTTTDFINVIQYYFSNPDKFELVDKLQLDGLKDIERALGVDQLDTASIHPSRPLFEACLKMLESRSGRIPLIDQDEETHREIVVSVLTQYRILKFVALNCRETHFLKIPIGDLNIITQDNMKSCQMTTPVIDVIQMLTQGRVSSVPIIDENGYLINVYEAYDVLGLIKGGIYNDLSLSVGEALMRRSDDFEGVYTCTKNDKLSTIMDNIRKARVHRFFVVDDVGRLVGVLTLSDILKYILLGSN
As to the kind of experiment: yeast two-hybrid, HIS3 reporter, strain YCB5.1. Here is the method:
Figure 1: FIG. 1: Investigation of the MORT1 transcript isoforms with MACHα1 C360S in a yeast two-hybrid system: Activation of the HIS3 reporter gene. Each MORT1 transcript isoforms was expressed as a fusion protein with Gal4 DNA binding domain. MACHα1 C360S was expressed as a fusion protein with the Gal4 activation domain. Yeast strains were plated at a cell density of 5 ×10^1, 5 ×10^2, 5 ×10^3, 5 ×10^4 and 5 ×10^5 (left to right within a plate. Sibling isolates from yeast strains expressing a MORT1 transcript isoform with MACHα1 C360S fusion proteins were plated on histidine deficient media containing 0, 20 or 40 mM 3-aminotriazole (3-AT). The top row of plates (1) contained yeast strains that express two fusion proteins as follows: YCB5: MORT1-pAS1/MACHα1 C360S-pACTII; YCB9: MORT1Δ21-pAS1/MACHα1 C360S-pACTII; YCB16: MORT1 G173A-pAS1/MACHα1 C360S-pACTII. The bottom row of plates (3) contains negative control strains which express only the MORT1 transcript isoform fusion protein with a recombinant vector containing nonrelated heterologous DNA, as follows: YCB5.1: MORT1-pAS1/SNF4-pACTII; YCB9.1: […]. […] Each MORT1 transcript isoforms was expressed as a fusion protein with Gal4 DNA binding domain. MACHα1 C360S was expressed as a fusion protein with the Gal4 activation domain. […]

B1: MORT1 fusion protein with Gal4 DNA binding domain (MORT1-pAS1) (other)
chain: MDPFLVLLHSVSSSLSSSELTELKFLCLGRVGKRKLERVQSGLDLFSMLLEQNDLEPGHTELLRELLASLRRHDLLRRVDDFEAGAAAGAAPGEEDLCAAFNVICDNVGKDWRRLARQLKVSDTKIDSIEDRYPRNLTERVRESLRIWKNTEKENATVAHLVGALRSCQMNLVADLVQEVQQARDLQNRSGAMSPMSWNSDASTSEAS
Turning to B1, the binding result is on record as “no binding”.
